According to article PMC10884834, “SPR spectroscopic analysis of myosin binding to wild type and mutant UNC45B” (microPublication Biology, 2024):

B1: UNC45B (wild type), Homo sapiens (natural protein, human, UniProt Q8IWX7 1-931, looked up)
chain: MAEVEAVQLKEEGNRHFQLQDYKAATNSYSQALKLTKDKALLATLYRNRAACGLKTESYVQAASDASRAIDINSSDIKALYRRCQALEHLGKLDQAFKDVQRCATLEPRNQNFQEMLRRLNTSIQEKLRVQFSTDSRVQKMFEILLDENSEADKREKAANNLIVLGREEAGAEKIFQNNGVALLLQLLDTKKPELVLAAVRTLSGMCSGHQARATVILHAVRIDRICSLMAVENEEMSLAVCNLLQAIIDSLSGEDKREHRGKEEALVLDTKKDLKQITSHLLDMLVSKKVSGQGRDQALNLLNKNVPRKDLAIHDNSRTIYVVDNGLRKILKVVGQVPDLPSCLPLTDNTRMLASILINKLYDDLRCDPERDHFRKICEEYITGKFDPQDMDKNLNAIQTVSGILQGPFDLGNQLLGLKGVMEMMVALCGSERETDQLVAVEALIHASTKLSRATFIITNGVSLLKQIYKTTKNEKIKIRTLVGLCKLGSAGGTDYGLRQFAEGSTEKLAKQCRKWLCNMSIDTRTRRWAVEGLAYLTLDADVKDDFVQDVPALQAMFELAKAGTSDKTILYSVATTLVNCTNSYDVKEVIPELVQLAKFSKQHVPEEHPKDKKDFIDMRVKRLLKAGVISALACMVKADSAILTDQTKELLARVFLALCDNPKDRGTIVAQGGGKALIPLALEGTDVGKVKAAHALAKIAAVSNPDIAFPGERVYEVVRPLVRLLDTQRDGLQNYEALLGLTNLSGRSDKLRQKIFKERALPDIENYMFENHDQLRQAATECMCNMVLHKEVQERFLADGNDRLKLVVLLCGEDDDKVQNAAAGALAMLTAAHKKLCLKMTQVTTQWLEILQRLCLHDQLSVQHRGLVIAYNLLAADAELAKKLVESELLEILTVVGKQEPDEKKAEVVQTARECLIKCMDYGFIKPVS
notes: UNC45B, Homo sapiens, codon optimized for E. coli, synthesized (GenScript), in a pET-28 vector; also called wild-type UNC-45B; source: E. coli BL21 DE3, purified (HisPur Ni-NTA resin)
B2: UNC45B loop deletion mutant (residues 600-630), Homo sapiens (natural protein)
chain: MAEVEAVQLKEEGNRHFQLQDYKAATNSYSQALKLTKDKALLATLYRNRAACGLKTESYVQAASDASRAIDINSSDIKALYRRCQALEHLGKLDQAFKDVQRCATLEPRNQNFQEMLRRLNTSIQEKLRVQFSTDSRVQKMFEILLDENSEADKREKAANNLIVLGREEAGAEKIFQNNGVALLLQLLDTKKPELVLAAVRTLSGMCSGHQARATVILHAVRIDRICSLMAVENEEMSLAVCNLLQAIIDSLSGEDKREHRGKEEALVLDTKKDLKQITSHLLDMLVSKKVSGQGRDQALNLLNKNVPRKDLAIHDNSRTIYVVDNGLRKILKVVGQVPDLPSCLPLTDNTRMLASILINKLYDDLRCDPERDHFRKICEEYITGKFDPQDMDKNLNAIQTVSGILQGPFDLGNQLLGLKGVMEMMVALCGSERETDQLVAVEALIHASTKLSRATFIITNGVSLLKQIYKTTKNEKIKIRTLVGLCKLGSAGGTDYGLRQFAEGSTEKLAKQCRKWLCNMSIDTRTRRWAVEGLAYLTLDADVKDDFVQDVPALQAMFELAKAGTSDKTILYSVATTLVNCTNSYDVKEVIPELVQLAISALACMVKADSAILTDQTKELLARVFLALCDNPKDRGTIVAQGGGKALIPLALEGTDVGKVKAAHALAKIAAVSNPDIAFPGERVYEVVRPLVRLLDTQRDGLQNYEALLGLTNLSGRSDKLRQKIFKERALPDIENYMFENHDQLRQAATECMCNMVLHKEVQERFLADGNDRLKLVVLLCGEDDDKVQNAAAGALAMLTAAHKKLCLKMTQVTTQWLEILQRLCLHDQLSVQHRGLVIAYNLLAADAELAKKLVESELLEILTVVGKQEPDEKKAEVVQTARECLIKCMDYGFIKPVS

Legend:
[1] = molecular target: myosin II, full-length, purified from rabbit skeletal muscle (rabbit, UniProt Q28641 1-1938); assay: SPR; BIAcore X100; His-tagged UNC45B constructs (0.2 uM) captured on Ni2+-NTA sensor chip; myosin analyte 1 up to 3500 nM at 5 ul/min; HBS-P (10 mM HEPES, 150 mM NaCl, 0.005% Tween20, pH 7.4) plus 50 uM EDTA; 20 C; steady-state signal fitted to a 1:1 one-site saturation model; n=3; details: both partners purified
[2] = molecular target: myosin II, full-length, purified from rabbit skeletal muscle (rabbit, UniProt Q28641 1-1938, Deletion taken as residues 600-630, as the methods print for the mutant; the description gives the loop as N601-D630, so residue 600 is uncertain. Full-length canonical isoform (931 aa) assumed. His-t); assay: as above; details: both partners purified

Row | Binder | Kd [1] | Kd [2]
1 | B1 | 330 nM | –
2 | B2 | – | 2630 nM
